Where a chain is given by its changes, count along the chain named. Numbers in names are those of the source. Blank lines part the entries; values can stand above or below the binder they belong to.
Legend:
[1] = target: T1, P2 peptide comprising SEQ ID NO: 31 (human fibrin γ377-395) (human); assay: SPR (Biacore) single cycle, steady state affinity; IgG from HEK supernatant captured, γ377-395 peptide analyte
T1 construct: Bought (CPC Scientific 920712); also called human P2 peptide
T1 peptide: YSMKKTTMKIIPFNRLTIG

[2] = target: T1, P2 peptide comprising SEQ ID NO: 31 …; assay: SPR (Biacore) single cycle, steady state fit; IgG from HEK supernatant captured, P2 peptide analyte
Description: FIG. 18 illustrates the procedure used for the single cycle kinetics analysis. The Biacore T200 […] instrument was used for single cycle kinetics analysis with the control software v2.0.1, and evaluation software V3.0. The anti-human capture chip was used with a running buffer consisting of HBS-P+ buffer (pH 7.4) containing 0.1% BSA at 25° C. a flow rate of 30 μl/min. Neat HEK supernatants were used as ligand and loaded to ˜1674 RU at 10 μl/min. P2 peptide comprising SEQ ID NO: 31 (CPC Scientific 920712, Lot #CS-02-00350) was the analyte for the analysis. […] Regeneration was performed with MgCl₂. Antibodies were diluted in running buffer to a final concentration of 20 μg/ml, based on concentrations assessed by Octet titre. At the start of each cycle, antibodies were loaded onto Fc2, Fc3 and Fc4 of the anti-human capture chip (GE Healthcare, Little Chalfont, UK). IgGs were captured at a flow rate of 10 μl/min to give an immobilization level (RL) of ˜ 1674 RU, the theoretical value to obtain an RMax of ˜50 RU. The surface was then allowed to stabilize. Single cycle kinetic data was obtained with P2 peptide as the analyte at a flow rate of 30 μl/min to minimize any potential mass transport limitations. […] The signal from the reference channel Fc1 (no antibody) was subtracted from that of Fc2, Fc3 and Fc4 to correct for differences in non-specific binding to a reference surface. […] The association phase for the five injections of increasing concentrations of P2 peptide was monitored for 20 seconds each time and a single dissociation phase was measured for 25 seconds following the last injection analyte. Regeneration of the anti-human capture surface was conducted using one injection of 3.8 M magnesium chloride.

- Kd [2]: 148 µM
- Relative KD [2]: 1.67 fold against VH0/VK0
B6: VH4/VK3 (antibody, V domains shown)
VH: QVQLVQSGAEVKKPGSSVKVSCKASGYTFTSYWIHWVRQAPGQGLEWIGLIDPSDSYTNYNQKFRGRVTITVDTSTSTAYMELSSLRSEDTAVYYCASSDPTGCWGQGTTVTVSS
VL: DIVMTQSPLSLPVTPGEPASISCRSSKSLLHSSGITYLSWYLQKPGQSPQLLIYQMSNLASGVPDRFSSSGSGTDFTLKISRVEAEDVGVYYCAQNLELPLTFGQGTKLEIK

- Kd [2]: 277 µM
- Relative KD [2]: 3.12 fold against VH0/VK0
B7: VH5/VK4 (antibody, IgG1, V domains shown)
VH: B6 VH with V72R
VL: B6 VL with S69G
notes: Expressed as IgG1

- Kd [2]: 173 µM
- Relative KD [2]: 1.95 fold against VH0/VK0
B8: VH5/VK1 (antibody, IgG1, V domains shown)
VH: B6 VH with V72R
VL: B6 VL with S7A, P8A, L9F, L11N, V13I, E17T, K79R
notes: Expressed as IgG1

- Kd [1]: 49 µM
- Relative KD [1]: 1.05 fold against VH4/VK2
B11: VH4 C102T/VK2 (antibody, IgG1, V domains shown)
VH: B6 VH with C104T
VL: B6 VL with S7A, P8A, L9F, L11N, E17T
notes: IgG1, tested from HEK supernatant

- Kd [2]: 174 µM
- Relative KD [2]: 1.96 fold against VH0/VK0
B12: VH6/VK1 (antibody, IgG1, V domains shown)
VH: B6 VH with R65Q, V72R
VL: B6 VL with S7A, P8A, L9F, L11N, V13I, E17T, K79R
notes: Expressed as IgG1

- Kd [2]: 279 µM
- Relative KD [2]: 3.15 fold against VH0/VK0
B13: VH5/VK3 (antibody, IgG1, V domains shown)
VH: B6 VH with V72R
VL: B6 VL
notes: Expressed as IgG1

- Kd [2]: 157 µM
- Relative KD [2]: 1.77 fold against VH0/VK0
B14: VH4/VK4 (antibody, IgG1, V domains shown)
VH: B6 VH
VL: B6 VL with S69G
notes: Expressed as IgG1

- Kd [2]: 192 µM
- Relative KD [2]: 2.16 fold against VH0/VK0
B16: VH6/VK3 (antibody, IgG1, V domains shown)
VH: B6 VH with R65Q, V72R
VL: B6 VL
notes: Expressed as IgG1

The next lines start with the binder.

B1: VH4 C102A/VK2 (antibody, IgG1, V domains shown)
VH: B6 VH with C104A
VL: B6 VL with S7A, P8A, L9F, L11N, E17T
notes: as for B11
- Kd [1]: 72 µM
- Relative KD [1]: 1.53 fold against VH4/VK2

B2: VH1/VK3 (antibody, V domains shown)
VH: B6 VH with V11L, S16T, V20L, R38K, V68A, I70L, E82Q, R87T, T91S
VL: B6 VL
- Kd [2]: 200 µM
- Relative KD [2]: 2.25 fold against VH0/VK0

B3: VH1/VK4 (antibody, V domains shown)
VH: B6 VH with V11L, S16T, V20L, R38K, V68A, I70L, E82Q, R87T, T91S
VL: B6 VL with S69G
- Kd [2]: 176 µM
- Relative KD [2]: 1.98 fold against VH0/VK0

B4: VH1/VK1 (antibody, V domains shown)
VH: B6 VH with V11L, S16T, V20L, R38K, V68A, I70L, E82Q, R87T, T91S
VL: B6 VL with S7A, P8A, L9F, L11N, V13I, E17T, K79R
- Kd [2]: 104 µM

B5: VH1/VK2 (antibody, V domains shown)
VH: B6 VH with V11L, S16T, V20L, R38K, V68A, I70L, E82Q, R87T, T91S
VL: B6 VL with S7A, P8A, L9F, L11N, E17T
- Kd [2]: 96.4 µM
- Relative KD [2]: 1.09 fold against VH0/VK0

B9: VH4 C102L/VK2 (antibody, IgG1, V domains shown)
VH: B6 VH with C104L
VL: B6 VL with S7A, P8A, L9F, L11N, E17T
notes: IgG1, tested from HEK supernatant; also called VH4-102L
- Kd [1]: 93 µM
- Relative KD [1]: 1.98 fold against VH4/VK2

B10: VH4 C102S/VK2 (antibody, IgG1, V domains shown)
VH: B6 VH with C104S
VL: B6 VL with S7A, P8A, L9F, L11N, E17T
notes: as for B11
- Kd [1]: 66 µM
- Relative KD [1]: 1.41 fold against VH4/VK2

B15: VH4 C102G/VK2 (antibody, IgG1, V domains shown)
VH: B6 VH with C104G
VL: B6 VL with S7A, P8A, L9F, L11N, E17T
notes: IgG1, tested from HEK supernatant; also called VH4-102G
- Kd [1]: 22 µM
- Relative KD [1]: 0.59 fold against VH4/VK2

Source: patent publication US20240279357A1 (THERINI BIO, published 2024)
